The target in series [1] is T1, Cathepsin G (CatG) (Homo sapiens, UniProt P08311 21-244).
T1 sequence: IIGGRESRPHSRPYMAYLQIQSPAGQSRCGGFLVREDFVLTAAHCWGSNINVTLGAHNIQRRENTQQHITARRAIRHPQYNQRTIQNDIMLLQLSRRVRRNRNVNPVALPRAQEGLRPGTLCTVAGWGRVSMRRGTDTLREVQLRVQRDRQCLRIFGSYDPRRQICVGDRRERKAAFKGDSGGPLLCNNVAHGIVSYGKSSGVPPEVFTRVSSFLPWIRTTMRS
As to the kind of experiment: SP Sepharose chromatography (Kd in figure only); 5 mM Mg2+; SELEX and Kd: 30 mM Tris-HCl pH 7.5, 150 mM NaCl, 5 mM KCl, 5 mM MgCl2, on ice/4 C; SPR: immobilized CatG, HBS-EP pH 7.4 running buffer, oligos in the Tris buffer, 25 C. The following applies: protein: native, label: 5' 32P.

Series [2] has as its target T1, Cathepsin G (CatG). As to the kind of experiment: SP Sepharose chromatography; no appreciable affinity; SELEX and Kd: 30 mM Tris-HCl pH 7.5, 150 mM NaCl, 5 mM KCl, 5 mM MgCl2, on ice/4 C; SPR: immobilized CatG, HBS-EP pH 7.4 running buffer, oligos in the Tris buffer, 25 C. The settings on record: protein: native, label: 5' 32P.

B1: CG51 (ssDNA)
DNA: CAACGTGTGATATGTGGGTATACGCTTGGGTGTTACGCTGAGCACAGAGGGTATTCGTGT
On to B1, for which the binding result with Cathepsin G (CatG) [1] (predicted fold about -2.52 kcal/mol) was “binds”.

B2: cCG51 (ssDNA)
DNA: ACACGAATACCCTCTGTGCTCAGCGTAACACCCAAGCGTATACCCACATATCACACGTTG
As for B2, the binding result with Cathepsin G (CatG) [1] is given as “binds”.

B3: pE35 (PE35), L-Tyr aptamer (ssDNA)
DNA: AATTCGCTAGCTGGAGCTTGGATTGATGTGGTGTGTGAGTGCGGTGCCCGGATCC
For the molecule B3, the binding result in the series with Cathepsin G (CatG) [2] is reported as “no binding”.

As to GGTTGGTGTGGTTGG (structured_DNA) [THR, thrombin aptamer], in the series with Cathepsin G (CatG) [2] (G-quartet, intramolecular), the binding result is reported as “no binding”.
